Measurements as given in patent publication US5670316.

Target: RecA (UniProt P0A7G6)
Experiment: pulldown

RecA, sequence (P0A7G6 2-353): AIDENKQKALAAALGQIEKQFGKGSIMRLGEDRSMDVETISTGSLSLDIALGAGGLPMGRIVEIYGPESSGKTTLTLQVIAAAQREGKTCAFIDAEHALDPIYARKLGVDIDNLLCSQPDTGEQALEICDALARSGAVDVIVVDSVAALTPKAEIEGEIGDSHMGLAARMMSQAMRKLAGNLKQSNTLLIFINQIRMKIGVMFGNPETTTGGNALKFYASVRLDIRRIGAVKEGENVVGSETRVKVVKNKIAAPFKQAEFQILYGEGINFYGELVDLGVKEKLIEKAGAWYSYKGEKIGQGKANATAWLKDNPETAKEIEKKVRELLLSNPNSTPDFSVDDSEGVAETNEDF

Q: How did the activity (bio-14-dATP incorporated, capture of 32P lambda DNA target, 3.7% without RecA, ATPgammaS, Mg acetate) turn out when “lambda 1000-mer (6631-7630) nick-translated probe” was run?
A: 45.9%

Q: phiX174 RFI nick-translated probe was tested. Which activity (capture of 32P lambda target with heterologous non-biotinylated probe, 3.1% without RecA (background)) did it give?
A: 3.6%
